Experimental data as given in patent publication US20160251438A1 (LUDWIG INSTITUTE FOR CANCER RESEARCH, published 2016).

Assays:
[1] = biological target: GARP Y137H/S138G/G139N / TGF-β1 complex (human, UniProt Q14392 20-662; P01137 30-390); assay: FACS 293T, 5 ug/ml, normalised to anti-HA
Text: (§1) Resolution of the crystal structure of MHG-8 Fab/GARP/TGF-β1 complexes and analysis with the CONTACT software allowed the identification of 22 amino-acids in GARP, 8 amino-acids in LAP and 6 amino-acids in mature TGF-β1 that are located less than 5 Å away from an amino-acid of the light or heavy chain of the MHG-8 Fab (Tables 7a, b and c, and Table 8). Directed mutagenesis was used to construct plasmids encoding HA-tagged forms of GARP or TGF-β1 that are mutated at one, two, or three of these 36 positions (all mutations constructed are indicated in Table 8). […] Antibodies were used at a saturating concentration of 5 μg/ml for labeling. Binding of each antibody to a given mutant GARP/TGF-β1 complex was compared to their binding to wild type (WT) complexes, by determining an I_{m/wt} value (i.e. intensity of binding to mutant by comparison to WT). This value was calculated as follows: I_{m/wt} of antibody X=[Geom on mutant−Geom on control]/[Geom on WT−Geom on control]
(§2) The level of residual binding of anti-GARP or anti-LAP antibodies to each mutant was then calculated by comparison to WT, taking into account the expression levels of mutant and WT forms as measured with anti-HA antibodies. Residual binding was calculated as follows: Residual binding by an anti-GARP or anti-LAP antibody=[I_{m/wt} with anti-GARP or anti-LAP antibody]/[I_{m/wt} with anti-HA antibody]

[2] = biological target: GARP / TGF-β1 K338E complex (human, UniProt Q14392 20-662; P01137 30-390); assay: FACS 293T, 5 ug/ml, normalised to anti-HA
Text: as §1, §2

[3] = biological target: GARP R163E / TGF-β1 complex (human, UniProt Q14392 20-662; P01137 30-390); assay: FACS 293T, 5 ug/ml, normalised to anti-HA
Text: as §1, §2

[4] = biological target: T1, GARP R143Y / TGF-β1 complex (human, UniProt Q14392 20-662; P01137 30-390); assay: FACS 293T, 5 ug/ml, normalised to anti-HA
Text: as §1, §2

[5] = biological target: GARP T162D / TGF-β1 complex (human, UniProt Q14392 20-662; P01137 30-390); assay: FACS 293T, 5 ug/ml, normalised to anti-HA
Text: as §1, §2

[6] = biological target: T2, GARP Y137H / TGF-β1 complex (human, UniProt Q14392 20-662; P01137 30-390); assay: FACS 293T, 5 ug/ml, normalised to anti-HA
Text: as §1, §2

[7] = biological target: GARP / TGF-β1 E146R complex (human, UniProt Q14392 20-662; P01137 30-390); assay: flow cytometry titration on transfected 293T cells; grade of Reduced avidity read by footnote 3
Protocol: Intensities of staining at each concentration of antibody relative to the maximal intensity measured at 5 μg/ml were determined as follows:
The relative staining intensities were plotted according to the concentration of antibody used for staining, and a non-linear regression analysis was used with the Prism software to determine an EC₅₀ value for binding of the antibody to the WT and to each of the various mutant GARP/TGF-β1 complexes. If the ratio between the EC₅₀ measured on the mutant and the EC₅₀ measured on the WT was >2, the mutation was considered to induce a reduced avidity for binding by the antibody. The ratio of EC₅₀ (mutant vs WT) for MHG-8 and LHG-10 are indicated below each mutation on FIG. 19, parts A and B, respectively.

[8] = biological target: GARP R163E/T165A / TGF-β1 complex (human, UniProt Q14392 20-662; P01137 30-390); assay: flow cytometry on transfected 293T cells, 5 ug/ml; grade of Loss of binding read by footnote 2 (error bar crosses the 50% threshold)
Text: as §1, §2

[9] = biological target: T1, GARP R143Y / TGF-β1 complex; assay: as above
Text: as §1, §2

[10] = biological target: GARP / TGF-β1 Y336A complex (human, UniProt Q14392 20-662; P01137 30-390); assay: as above
Text: as §1, §2

[11] = biological target: T2, GARP Y137H / TGF-β1 complex; assay: as above
Text: as §1, §2

[12] = biological target: T3, recombinant soluble human GARP-TGFβ1 complex (human, UniProt Q14392 20-628; P01137 30-390); assay: SPR (Biacore), hGARP-TGFβ1 immobilised
T3 construct: co-expressed in HEK293E, purified by the Strep-Tag; TGFβ consists of LAP and mature TGFβ; also called shGARP-TGFβ; rhGARP-TGFβ

[13] = biological target: T4, chimera 141 / hTGF-β1 complex on the cell surface (Mus musculus, UniProt G3XA59); assay: FACS, 293T, HA-tagged construct + hTGFB1
T4 construct: N-terminal part

[14] = biological target: T5, chimera 207 / hTGF-β1 complex on the cell surface (Mus musculus, UniProt G3XA59); assay: FACS, 293T, HA-tagged construct + hTGFB1
T5 construct: N-terminal part

[15] = biological target: T6, chimera 332 / hTGF-β1 complex on the cell surface (Mus musculus, UniProt G3XA59); assay: FACS, 293T, HA-tagged construct + hTGFB1
T6 construct: N-terminal part

[16] = biological target: T7, chimera 265 / hTGF-β1 complex on the cell surface (Mus musculus, UniProt G3XA59); assay: FACS, 293T, HA-tagged construct + hTGFB1
T7 construct: N-terminal part

T3 sequence (Q14392 other isoform, or with tags, fused parts or gaps limits assumed, chain 1 of 2): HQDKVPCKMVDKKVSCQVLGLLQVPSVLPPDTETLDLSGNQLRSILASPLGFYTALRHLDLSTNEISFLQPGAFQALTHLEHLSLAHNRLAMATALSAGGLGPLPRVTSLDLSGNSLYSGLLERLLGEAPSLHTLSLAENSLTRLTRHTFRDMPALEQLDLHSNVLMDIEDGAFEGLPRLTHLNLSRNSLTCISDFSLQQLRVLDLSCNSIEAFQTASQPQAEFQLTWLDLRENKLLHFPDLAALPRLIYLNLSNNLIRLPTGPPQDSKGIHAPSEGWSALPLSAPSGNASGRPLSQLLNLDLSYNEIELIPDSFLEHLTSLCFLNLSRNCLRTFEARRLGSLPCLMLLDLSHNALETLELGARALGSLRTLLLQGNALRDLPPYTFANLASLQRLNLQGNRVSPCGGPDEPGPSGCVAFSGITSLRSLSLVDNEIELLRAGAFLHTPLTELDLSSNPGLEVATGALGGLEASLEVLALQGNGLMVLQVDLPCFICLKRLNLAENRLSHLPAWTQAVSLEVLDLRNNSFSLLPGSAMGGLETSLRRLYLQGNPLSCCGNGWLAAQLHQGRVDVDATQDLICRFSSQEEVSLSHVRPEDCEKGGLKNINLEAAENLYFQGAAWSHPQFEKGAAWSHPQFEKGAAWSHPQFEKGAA
T3 sequence (P01137 30-390 limits assumed, chain 2 of 2): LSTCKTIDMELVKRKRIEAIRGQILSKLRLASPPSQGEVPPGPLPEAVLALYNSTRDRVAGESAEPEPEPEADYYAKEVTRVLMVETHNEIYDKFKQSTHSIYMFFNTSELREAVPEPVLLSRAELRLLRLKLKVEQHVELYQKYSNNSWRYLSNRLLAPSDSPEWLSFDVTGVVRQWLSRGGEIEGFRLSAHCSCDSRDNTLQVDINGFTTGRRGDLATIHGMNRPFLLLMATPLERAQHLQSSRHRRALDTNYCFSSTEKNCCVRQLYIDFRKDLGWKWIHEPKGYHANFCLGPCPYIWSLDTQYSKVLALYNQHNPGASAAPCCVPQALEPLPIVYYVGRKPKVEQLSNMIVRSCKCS
T1 sequence (Q14392 20-662 R143Y limits assumed, chain 1 of 2): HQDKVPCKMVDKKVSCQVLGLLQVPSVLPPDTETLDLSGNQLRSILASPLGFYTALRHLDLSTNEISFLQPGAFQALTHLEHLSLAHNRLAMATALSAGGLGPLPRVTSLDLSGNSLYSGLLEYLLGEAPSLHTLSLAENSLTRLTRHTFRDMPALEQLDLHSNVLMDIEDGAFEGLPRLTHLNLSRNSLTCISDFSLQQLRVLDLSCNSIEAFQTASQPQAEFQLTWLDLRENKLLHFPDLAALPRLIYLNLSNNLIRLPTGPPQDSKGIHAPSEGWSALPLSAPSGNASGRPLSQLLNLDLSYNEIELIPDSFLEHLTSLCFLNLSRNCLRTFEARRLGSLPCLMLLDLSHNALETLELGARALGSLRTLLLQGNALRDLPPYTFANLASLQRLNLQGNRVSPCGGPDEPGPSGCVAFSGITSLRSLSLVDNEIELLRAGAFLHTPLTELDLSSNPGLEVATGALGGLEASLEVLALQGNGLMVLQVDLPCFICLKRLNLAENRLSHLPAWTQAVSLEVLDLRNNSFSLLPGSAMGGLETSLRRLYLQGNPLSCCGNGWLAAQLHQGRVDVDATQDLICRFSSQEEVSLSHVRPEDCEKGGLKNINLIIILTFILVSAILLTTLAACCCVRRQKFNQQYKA
T1 sequence (P01137 30-390 limits assumed, chain 2 of 2): as the sequence (P01137 30-390 limits assumed, chain 2 of 2) above
T2 sequence (Q14392 20-662 Y137H limits assumed, chain 1 of 2): as the sequence (Q14392 20-662 R143Y limits assumed, chain 1 of 2) above, with Y118H, Y124R counted along it
T2 sequence (P01137 30-390 limits assumed, chain 2 of 2): as the sequence (P01137 30-390 limits assumed, chain 2 of 2) above
GARP R163E / TGF-β1 complex, sequence (Q14392 20-662 R163E limits assumed, chain 1 of 2): as the sequence (Q14392 20-662 R143Y limits assumed, chain 1 of 2) above, with Y124R, R144E counted along it
GARP R163E / TGF-β1 complex, sequence (P01137 30-390 limits assumed, chain 2 of 2): as the sequence (P01137 30-390 limits assumed, chain 2 of 2) above

B1: LHG-10 (antibody, human IgG1, V domains shown)
VH: EVQLVQPGAELRNSGASVKVSCKASGYRFTSYYIDWVRQAPGQGLEWMGRIDPEDGGTKYAQKFQGRVTFTADTSTSTAYVELSSLRSEDTAVYYCARNEWETVVVGDLMYEYEYWGQGTQVTVSS
VL: DIQMTQSPTSLSASLGDRVTITCQASQSISSYLAWYQQKPGQAPKLLIYGASRLQTGVPSRFSGSGSGTSFTLTISGLEAEDAGTYYCQQYDSLPVTFGQGTKVELK
notes: llama-derived V regions in a full human IgG1
residual binding (% of WT) [1]: 6%
residual binding (% of WT) [2]: 15%
residual binding (% of WT) [3]: 48%
residual binding (% of WT) [4]: 68%
residual binding (% of WT) [5]: 49%
residual binding (% of WT) [6]: 62%
ratio of EC50 (mutant vs WT) [7]: ≤ 2 ratio
residual binding on mutant by comparison to WT [8]: ≥ 50%
residual binding on mutant by comparison to WT [9]: ≥ 50%
residual binding on mutant by comparison to WT [10]: ≥ 50%
residual binding on mutant by comparison to WT [11]: ≥ 50%
Kd [12]: 0.131 nM
fold improvement of KD (reference LHG-10) [12]: 1 fold
fold improvement of ka (reference LHG-10) [12]: 1 fold
fold improvement of kd (reference LHG-10) [12]: 1 fold
koff [12]: 3.12e-05 s⁻¹
kon [12]: 239000 M⁻¹ s⁻¹
binding result [13]: no binding
binding result [14]: no binding
binding result [15]: no binding
binding result [16]: no binding
